Results on ten proteins are retold here after US11491212.

The target of the data set is Factor X, P00742.
Sequence of Factor X, P00742 (P00742 whole entry, looked up): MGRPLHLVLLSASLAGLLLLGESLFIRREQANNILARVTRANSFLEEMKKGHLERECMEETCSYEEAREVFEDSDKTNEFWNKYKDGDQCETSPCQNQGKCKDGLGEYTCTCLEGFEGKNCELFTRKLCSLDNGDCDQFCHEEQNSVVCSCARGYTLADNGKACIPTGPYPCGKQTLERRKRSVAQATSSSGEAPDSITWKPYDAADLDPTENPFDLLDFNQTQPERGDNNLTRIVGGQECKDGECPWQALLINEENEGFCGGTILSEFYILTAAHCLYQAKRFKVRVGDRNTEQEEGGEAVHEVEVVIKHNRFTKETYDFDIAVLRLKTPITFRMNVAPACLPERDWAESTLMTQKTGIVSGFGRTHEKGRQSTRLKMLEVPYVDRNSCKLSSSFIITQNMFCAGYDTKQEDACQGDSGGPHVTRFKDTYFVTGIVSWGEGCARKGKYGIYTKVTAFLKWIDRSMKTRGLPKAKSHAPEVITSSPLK

B1: FIXa-Y155F/I251S/R338E/T343R/R403E (protein)
chain 1: not shown
chain 2: not shown
Take B1: the Michaelis-Menten constant (KM) is 0.0196 µM and the kcat/KM came to 3e+08 M⁻¹ s⁻¹.

B2: FIXa-Y155F/K247N/N249S/R318Y/R338E/T343R/R403E (protein)
chain 1: not shown
chain 2: not shown
For B2, the KM turned out to be 0.0365 µM and the catalytic efficiency (kcat/KM) worked out at 2.9e+08 M⁻¹ s⁻¹.

B3: FIXa-Y155F/K247N/N249S/T343R/R403E (protein)
chain 1: not shown
chain 2: not shown
B3: the Michaelis-Menten constant (KM) is 0.0596 µM and the kcat/KM turned out to be 8.5e+07 M⁻¹ s⁻¹.

B4: FIXa-Y155F/N260S/R338E/T343R/R403E (protein)
chain 1: not shown
chain 2: not shown
Regarding B4, the KM came to 0.0692 µM and the catalytic efficiency (kcat/KM) worked out at 9.4e+07 M⁻¹ s⁻¹.

B5: FIXa-Y155F/R338E/T343R/R403E/E410S (protein)
chain 1: not shown
chain 2: not shown
As for B5, the Michaelis constant (KM) turned out to be 0.0239 µM and the catalytic efficiency (kcat/KM) stood at 2.9e+08 M⁻¹ s⁻¹.

B6: FIXa-K247N/N249S/R318Y/R338E/T343R/R403E (protein)
chain 1: not shown
chain 2: not shown
In the case of B6, the KM amounted to 0.0284 µM and the kcat/KM was found to be 4.1e+08 M⁻¹ s⁻¹.

B7: FIXa-Y155F/R338E/T343R/R403E (protein)
chain 1: not shown
chain 2: not shown
Turning to B7, the KM came out at 0.0289 µM and the kcat/KM came out at 2e+08 M⁻¹ s⁻¹.

B8: FIXa-Y155F/K247N/N249S/R338E/T343R/R403E/E410N (protein)
chain 1: not shown
chain 2: not shown
Take B8: the KM amounted to 0.0264 µM and the kcat/KM turned out to be 3.7e+08 M⁻¹ s⁻¹.

B9: FIXa-R338E/T343R/R403E (protein)
chain 1: not shown
chain 2: not shown
For the protein B9, the KM is 0.0235 µM and the kcat/KM came out at 3.1e+08 M⁻¹ s⁻¹.

B10: FIXa-R318Y/R338E/T343R/R403E/E410S (protein)
chain 1: not shown
chain 2: not shown
Consider B10, for which the KM is 0.019 µM and the kcat/KM turned out to be 4.4e+08 M⁻¹ s⁻¹.

A word on the KM: it is the concentration of substrate that gives half-maximal velocity. The kcat/KM is the turnover number divided by the Michaelis constant.
